The record followed here is patent US8748407B2 (The Research Foundation for the State University of New York, priority 2010, dated 2014).

In the data set the target is T1, GluA2Qflip (Rattus norvegicus, UniProt P19491).
T1 construct: expressed in transfected cells; host or cells: HEK-293S
Description: Whole-cell current recording, GluA2Qflip in HEK-293 cells. It counts as cell-based. From the text: The original cDNAs in pBlueScript encoding rat GluA1, 2 and 3 AMPA receptors and GluK2 kainate receptor were kindly provided by Steve Heinemann. The GluA4 DNA plasmid was kindly provided by Peter Seeburg. The GluK1 plasmid was kindly provided by Geoffrey Swanson. The cDNAs of all three NMDA receptor subunits were gifts from John Woodward. All DNA plasmids were propagated using Escherichia coli host (DH5α) and purified using QIAGEN DNA purification kits.
All of the receptors were transiently expressed in HEK-293S cell. HEK-293S cells were maintained in Dulbecco's modified Eagle's medium (DMEM) supplemented with 10% fetal bovine serum and 1% penicillin in a 37° C., 5% CO2, humidified incubator. Receptors were transiently transfected by using calcium phosphate or lipofectamine 2000 (Invitrogen). The DNA plasmids encoding green fluorescent protein (GFP) and T-antigen (TAg) were cotransfected in HEK-293 S cells. GFP was used as a transfection marker for cell recording, and TAg was cotransfected to potentiate the receptor expression at the single-cell level^6. Transfected cells were allowed to grow for 48 hour before they were used for recording.
The procedure for whole-cell current recording to assay the inhibitory property of an RNA aptamer is known to those of skill in the art and has been previously described^7. […] The extracellular buffer composition is described above (see “Receptor Preparation”). For recording of the NMDA channels, the intracellualr solution contained (in mM) 140 CsCl, 1 MgCl2, 0.1 EGTA, and 10 HEPES (pH 7.2 adjusted by […]), while the extracellular solution contained (in mM) 135 NaCl, 5.4 KCl, 1.8 CaCl2, 10 glucose and 5 HEPES (pH 7.2 adjusted by NaOH). In the extracellular buffer, 2 μM of glycine was added (glycine was the co-agonist of NMDA receptor)^2. All reagents including aptamer were dissolved in the corresponding extracellular buffer and used. […] The whole-cell current was recorded using an Axopatch-200B amplifier at a cutoff frequency of 2-20 kHz by a built-in, eight-pole Bessel filter and digitized at 5-50 kHz sampling frequency using a Digidata 1322A from Axon Instruments (Molecular Devices, Sunnyvale, Calif.). The pClamp 8 software (Molecular Devices) was used for data acquisition. All whole-cell recordings were at −60 mV and 22° C.
To deliver AG56 to a HEK-293 cell, a “Ψ”-shaped flow device was used. […] In all experiments reported in this study, a 6-second preincubation flow protocol was used for full aptamer preincubation. […] The corrected current amplitude was used for data analysis.
Determination of KI,app by the ratio of the current amplitude in the absence and presence of inhibitor or A/A(I)—see FIG. 5 in the text. Equ. 10a and 10b were derived based on one inhibitor binding to the receptor. KI, app is the apparent inhibition constant for the inhibitor; other terms have been defined previously.
Under this condition, the inhibition constant for the closed-channel conformation was determined from the ratio of the amplitude according to equ. 10a and 10b. Likewise, at a saturating ligand concentration (i.e., L>>K1), the majority of the receptors were in the open-channel state. Consequently, the inhibition constant associated with the open-channel conformation was measured. The basis of using the two ligand concentrations that corresponded to ˜4% and ˜96% fraction of the open-channel receptor form^7 to determine the corresponding inhibition constant was a putative difference in inhibition constant between the closed-channel and the open-channel conformation. At those low and high ligand concentrations^7, the apparent inhibition constants obtained were considered pertinent to the closed-channel and the open-channel conformations, respectively. Examples of using the current amplitude to determine the inhibition constant for an inhibitor include our previous study of two 2,3-benzodiazepine derivatives with the GluA2Qflip AMPA receptor^15.

T1 sequence (P19491 22-883 isoform P19491-2): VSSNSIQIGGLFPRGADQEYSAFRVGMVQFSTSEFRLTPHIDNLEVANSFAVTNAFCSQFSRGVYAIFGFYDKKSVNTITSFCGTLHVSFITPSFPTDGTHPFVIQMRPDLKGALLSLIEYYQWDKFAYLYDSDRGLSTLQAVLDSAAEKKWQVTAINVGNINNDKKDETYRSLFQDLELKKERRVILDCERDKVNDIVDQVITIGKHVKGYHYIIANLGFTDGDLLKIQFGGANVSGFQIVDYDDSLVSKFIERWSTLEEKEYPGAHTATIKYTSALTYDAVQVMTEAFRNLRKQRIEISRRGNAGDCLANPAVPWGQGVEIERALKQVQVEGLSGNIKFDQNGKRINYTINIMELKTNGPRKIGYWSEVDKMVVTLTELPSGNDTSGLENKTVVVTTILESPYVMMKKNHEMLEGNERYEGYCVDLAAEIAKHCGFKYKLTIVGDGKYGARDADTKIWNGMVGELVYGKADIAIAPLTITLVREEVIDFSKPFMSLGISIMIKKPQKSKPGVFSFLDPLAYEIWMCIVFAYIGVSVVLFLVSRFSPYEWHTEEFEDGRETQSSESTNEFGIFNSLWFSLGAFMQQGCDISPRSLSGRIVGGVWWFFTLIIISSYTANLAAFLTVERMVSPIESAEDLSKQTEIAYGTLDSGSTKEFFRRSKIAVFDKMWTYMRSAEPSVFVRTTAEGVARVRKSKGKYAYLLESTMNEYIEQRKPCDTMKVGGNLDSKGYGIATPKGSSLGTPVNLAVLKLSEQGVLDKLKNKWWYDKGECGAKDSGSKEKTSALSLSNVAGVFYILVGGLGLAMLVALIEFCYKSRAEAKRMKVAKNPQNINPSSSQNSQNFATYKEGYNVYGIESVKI

For the molecule “45 nt RNA: truncated AG1407 version with the bulge at the U50 position removed (GGUUCAACUGCCAUCUAGGCAGAUUGUGAAGCGUAGGCUCGAGCC; listed as RNA, chemistry not given here)”, the “inhibitory function of shorter versions of AG1407, based on A/A(I)” value (“inhibitory function” below) (GluA2Qflip) was “total loss of inhibitory function”.

Consider “46 nt RNA: truncated AG1407 version with three-way junction shortened by deleting UUGUGA sequence (GGAGAAUCAACUGCCAUCUAGGCAGAAGCGUAGGCUCGAUUUGUCC; listed as RNA, chemistry not given here)”, for which, for the setting “GluA2Qflip”, the “inhibitory function” value is “total loss of inhibitory function”.

In the case of “48 nt RNA: truncated AG1407 version with base-paired stem in first stem-loop region truncated (GGAGAAUCAACUCAUCUAGAGAUUGUGAAGCGUAGGCUCGAUUUGUCC; listed as RNA, chemistry not given here)”, the “inhibitory function” value (GluA2Qflip) is on record as “total loss of inhibitory function”.

B1: AG1407: full length 100-nt RNA aptamer, most enriched SELEX sequence against GluA2Qflip (nucleic acid)
chain: GGGAGAAUUCAACUGCCAUCUAGGCAGAUUGUGAAGCGUAGGCUCGAGUUUGUCCCGCGAGCCAAAGAUUCCAGAAGUACUACAAGCUUCUGGACUCGGU
modifications: RNA, backbone not given here
With B1, the “A/A(I) value” is on record as “significantly larger than 1.0” (0.5 μM AG1407, 0.5 mM glutamate) and “significantly larger than 1.0” (0.5 μM AG1407, 3 mM glutamate). Under “500 nM aptamer, 3 mM glutamate”, the “A/A(I), ratio of current amplitudes in absence and presence of aptamer” value was “one of the most potent inhibitors”. The “inhibition of the open-channel conformation” value (GluA2Qflip, high glutamate concentration) is “inhibited the open-channel”.
